94 variants from the supplement of paper PMC10567573 can be followed below.

The chains are these.
B1: NET1 (parent)
chain: PTPAKRRSSALWSEMLDITMKESL
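Note: lentivirally expressed fusions sorted by FACS into six bins by GFP to DsRed ratio, PSI derived from sequencing read proportions per bin multiplied by bin number.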

This data set covers variants of B1. The experiment in a line: protein stability index of a GFP-peptide fusion (GPS, HEK-293T) (PSI 1-6); higher = more stable. As to conditions: c terminus: a fixed tail appended.
As for PTPAKRRSSALWSEMLDIEMKESL, the protein stability index was 1.43.
Next, PTPAKRRSSALWSEMLDIDMKESL: 2.37; PTPAKRRSSALWSEMLDIPMKESL: 1.7.
As to PTPAKRRSSALWSEMLDIHMKESL, the protein stability index came to 2.43.
Under PTPAKRRSSALWSEMLDIRMKESL stands 1.81; under PTPAKRRSSALWSEMLDIAMKESL, 1.74; under PTPAKRRSSALWSEMLDIQMKESL, 1.93.
Next, PTPAKRRSSALWSEMLDIIMKESL: 1.04; PTPAKRRSSALWSEMLDILMKESL: 1.66.
Under PTPAKRRSSALWSEMLDIGMKESL stands 2.36.
Regarding PTPAKRRSSALWSEMLDIWMKESL, the protein stability index is 1.61.
Next, PTPAKRRSSALWSEMLDINMKESL: 3.39; PTPAKRRSSALWSEMLDITMEESL: 2.8; PTPAKRRSSALWSEMLDITMTESL: 2.21.
With PTPAKRRSSALWSEMLDITMFESL, the protein stability index worked out at 1.17.
Next, PTPAKRRSSALWSEMLDITMAESL: 2.38; PTPAKRRSSALWSEMLDITMHESL: 2.25; PTPAKRRSSALWSEMLDITMRESL: 2.33.
In the case of PTPAKRRSSALWSEMLDITMYESL, the protein stability index was 2.03.
Under PTPAKRRSSALWSEMLDITMNESL stands 3.67; under PTPAKRRSSALWSEMLDITMSESL, 2.73.
In the case of PTPAKRRSSALWSEMLDITMDESL, the protein stability index worked out at 3.04.
Under PTPAKRRSSALWSEMLDITMVESL stands 2.5; under PTPAKRRSSALWSEMLDITMIESL, 2.06; under PTPAKRRSSALWSEMLDITMKEGL, 2.33.
Next, PTPAKRRSSALWSEMLDITMKECL: 1.4.
For the variant PTPAKRRSSALWSEMLDITMKEEL, the protein stability index was determined as 2.14.
Next, PTPAKRRSSALWSEMLDITMKEIL: 1.89.
Turning to PTPAKRRSSALWSEMLDITMKEQL, the protein stability index turned out to be 2.47.
Next, PTPAKRRSSALWSEMLDITMKENL: 2.48.
As for PTPAKRRSSALWSEMLDITMKEVL, the protein stability index turned out to be 1.88.
Under PTPAKRRSSALWSEMLDITMKEWL stands 3.71.
Consider PTPAKRRSSALWSEMLDITMKETL, for which the protein stability index was found to be 1.89.
Under PTPAKRRSSALWSEMLDITMKEKL stands 2.79.
On to PTPAKRRSSALWSEMLDITMKEYL, for which the protein stability index turned out to be 1.9.
On to PTPAKRRSSALWSEMLDITMKELL, for which the protein stability index amounted to 2.66.
Under PTPAKRRSSALWSEMLDITMKEML stands 1.33.
PTPAKRRSSALWSEMLDITMKEDL: the protein stability index is 1.93.
Next, PTPAKRRSSALWSEMLDITMKEFL: 1.69; PTPAKRRSSALWSEMLDITMKEPL: 2.63; PTPAKRRSSALISEMLDITMKESL: 3.5.
For the variant PTPAKRRSSALVSEMLDITMKESL, the protein stability index was determined as 3.65.
Under PTPAKRRSSALSSEMLDITMKESL stands 4.09; under PTPAKRRSSALKSEMLDITMKESL, 3.74.
Next, PTPAKRRSSALMSEMLDITMKESL: 3.51.
Turning to PTPAKRRSSALLSEMLDITMKESL, the protein stability index came out at 3.31.
Next, PTPAKRRSSALPSEMLDITMKESL: 3.9.
Next, PTPAKRRSSALNSEMLDITMKESL: 4.79.
Under PTPAKRRSSALGSEMLDITMKESL stands 4.59; under PTPAKRRSSALQSEMLDITMKESL, 4.46; under PTPAKRRSSALYSEMLDITMKESL, 2.78.
Turning to PTPAKRRSSALTSEMLDITMKESL, the protein stability index was determined as 4.19.
Under PTPAKRRSSALHSEMLDITMKESL stands 3.62; under PTPAKRRSSALWSEMLDITMKEST, 2.2; under PTPAKRRSSALWSEMLDITMKESD, 2.48.
Next, PTPAKRRSSALWSEMLDITMKESW: 1.36; PTPAKRRSSALWSEMLDITMKESV: 2.33.
Under PTPAKRRSSALWSEMLDITMKESF stands 1.89.
Regarding PTPAKRRSSALWSEMLDITMKESQ, the protein stability index amounted to 1.92.
As for PTPAKRRSSALWSEMLDITMKESE, the protein stability index was determined as 1.31.
Under PTPAKRRSSALWSEMLDITMKESM stands 2.28; under PTPAKRRSSALWSEMLDITMKESI, 2.29.
Under PTPAKRRSSALWSEMLDITMKESC stands 2.6; under PTPAKRRSSALWSEMLDITMKESP, 2.85.
Turning to PTPAKRRSSALWSEMLDITMKESA, the protein stability index came out at 2.59.
Turning to PTPAKRRSSALWSEMLDITMKESG, the protein stability index came to 2.47.
Under PTPAKRRSSALWSEMLDITMKESN stands 3.01; under PTPAKRRSSALWSEMLDITMKESK, 3.05.
In the case of PTPAKRRSSALWSEMLNITMKESL, the protein stability index is 2.75.
Under PTPAKRRSSALWSEMLRITMKESL stands 2.27; under PTPAKRRSSALWSEMLIITMKESL, 2.31; under PTPAKRRSSALWSEMLQITMKESL, 1.85.
Next, PTPAKRRSSALWSEMLEITMKESL: 2.07; PTPAKRRSSALWSEMLYITMKESL: 2.83.
Turning to PTPAKRRSSALWSEMLPITMKESL, the protein stability index turned out to be 2.83.
Next, PTPAKRRSSALWSEMLLITMKESL: 2.07; PTPAKRRSSALWSEMLFITMKESL: 2.
Under PTPAKRRSSALWSEMLKITMKESL stands 1.25; under PTPAKRRSSALWSEMLAITMKESL, 1.95; under PTPAKRRSSALWSEMLCITMKESL, 1.53.
Consider PTPAKRRSSALWSEMLTITMKESL, for which the protein stability index was determined as 1.92.
Consider PTPAKRRSSALWSEMLGITMKESL, for which the protein stability index came to 2.25.
For the variant PTPAKRRSSALWSEMLMITMKESL, the protein stability index is 1.26.
Next, PTPAKRRSSALWSEMLDITGKESL: 3.44; PTPAKRRSSALWSEMLDITRKESL: 3.42; PTPAKRRSSALWSEMLDITNKESL: 2.74.
Under PTPAKRRSSALWSEMLDITKKESL stands 2.75.
Under PTPAKRRSSALWSEMLDITFKESL stands 1.88; under PTPAKRRSSALWSEMLDITPKESL, 3.25; under PTPAKRRSSALWSEMLDITLKESL, 1.55.
With PTPAKRRSSALWSEMLDITHKESL, the protein stability index turned out to be 2.45.
For PTPAKRRSSALWSEMLDITSKESL, the protein stability index worked out at 3.71.
For the variant PTPAKRRSSALWSEMLDITEKESL, the protein stability index stood at 2.17.
Under PTPAKRRSSALWSEMLDITYKESL stands 2.64.
